Test results published in US20150005534A1.

Molecular target: CYP97C2 (rice) expressed in E. coli from pRQ-C2 (pCDFDuet-1-CYP97C2) (Rice (O. sativa))
Assay: cell-based or functional assay

| lutein, % of total carotenoids in alpha- and beta-carotene accumulating E. coli with co-expressed hydroxylases (% of total carotenoids) | Substance |
| --- | --- |
| 29 | CYP97A4 (rice) expressed in E. coli from pRT-A4 (pCOLADuet-1-CYP97A4) (enzyme) |
| 1.58 | HYD4 (maize) expressed in E. coli from pRQ-H4 (pCOLADuet-1-HYD4) (enzyme) |
